Assays:
[1] = target: T1, nAPG07433.1-APG09980 (synthetic); assay: cell_activity; HEK293FT; C>G predominant; PAM SEQ 152; conditions: tags: SV40 NLS, 3xFLAG N-term; nucleoplasmin NLS C-term
T1 chain: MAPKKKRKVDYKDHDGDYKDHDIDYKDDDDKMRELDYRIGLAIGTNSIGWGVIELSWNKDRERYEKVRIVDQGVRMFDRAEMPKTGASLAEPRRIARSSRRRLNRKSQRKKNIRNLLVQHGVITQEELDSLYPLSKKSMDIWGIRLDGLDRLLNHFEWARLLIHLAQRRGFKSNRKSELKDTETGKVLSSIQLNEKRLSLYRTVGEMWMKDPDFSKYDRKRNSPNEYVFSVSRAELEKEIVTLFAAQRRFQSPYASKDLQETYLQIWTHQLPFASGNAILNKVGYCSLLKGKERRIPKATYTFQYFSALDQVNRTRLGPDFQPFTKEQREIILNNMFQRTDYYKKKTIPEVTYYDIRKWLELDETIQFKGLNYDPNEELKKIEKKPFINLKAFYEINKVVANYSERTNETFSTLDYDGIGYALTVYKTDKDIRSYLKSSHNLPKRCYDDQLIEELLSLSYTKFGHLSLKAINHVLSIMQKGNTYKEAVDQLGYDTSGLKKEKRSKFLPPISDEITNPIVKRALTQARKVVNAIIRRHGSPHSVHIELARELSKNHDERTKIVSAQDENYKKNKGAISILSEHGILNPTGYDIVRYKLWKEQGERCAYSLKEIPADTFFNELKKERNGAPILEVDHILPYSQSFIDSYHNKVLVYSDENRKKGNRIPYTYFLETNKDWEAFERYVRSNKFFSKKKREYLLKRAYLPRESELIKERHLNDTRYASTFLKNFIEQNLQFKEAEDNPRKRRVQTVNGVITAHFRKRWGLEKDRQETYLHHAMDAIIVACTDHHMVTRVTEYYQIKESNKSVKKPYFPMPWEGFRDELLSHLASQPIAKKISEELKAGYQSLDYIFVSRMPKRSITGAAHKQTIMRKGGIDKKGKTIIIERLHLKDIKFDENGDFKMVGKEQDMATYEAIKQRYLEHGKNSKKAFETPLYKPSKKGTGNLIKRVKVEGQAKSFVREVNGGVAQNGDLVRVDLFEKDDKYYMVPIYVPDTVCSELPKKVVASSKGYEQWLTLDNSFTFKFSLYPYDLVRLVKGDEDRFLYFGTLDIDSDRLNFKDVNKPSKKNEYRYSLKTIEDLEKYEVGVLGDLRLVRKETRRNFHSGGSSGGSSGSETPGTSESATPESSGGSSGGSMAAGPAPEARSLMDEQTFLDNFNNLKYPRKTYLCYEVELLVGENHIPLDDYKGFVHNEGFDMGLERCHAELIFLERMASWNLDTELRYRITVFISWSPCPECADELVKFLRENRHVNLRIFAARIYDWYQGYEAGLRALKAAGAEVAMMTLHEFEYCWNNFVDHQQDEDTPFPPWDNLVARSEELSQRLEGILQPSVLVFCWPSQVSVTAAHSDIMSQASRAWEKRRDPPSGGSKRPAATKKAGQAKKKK

[2] = target: nAPG07433.1-APG05840 (synthetic); assay: as above; conditions: tags: SV40 NLS, 3xFLAG N-term; nucleoplasmin NLS C-term

B1: SGN000930 sgRNA ; SGN000930 target (ssRNA ; dsDNA)
RNA: GAACAACUCAAAUGGAAAUGAAUAUGUCAUAGUUCCAUGAAAGCCAAAAGUGGCUUUGAUGUUUCUAUGAUAAGGGUUUCGGCCCGUGGCGUCGGGGAUCGCCUGCCCAUUCCGAUGGGCUUCUCCCCAUUUAUU
DNA 1: GAACAACTCAAATGGAAATGAATAT
DNA 2: ATATTCATTTCCATTTGAGTTGTTC
- activity [1]: 18.4 % mutated reads
- activity [2]: 17.5 % mutated reads

From patent publication US20240301385, “DNA MODIFYING ENZYMES AND ACTIVE FRAGMENTS AND VARIANTS THEREOF AND METHODS OF USE” (LIFEEDIT THERAPEUTICS, INC., published 2024)
